The values below come from publication PMC6894054.

This data set deals with ILF3 mouse-human dsRBM2 (SPR) (mouse-human (so in the source)). Kind of data set: SPR. The conditions noted are these: ELISA and SPR buffers not given in the material (SPR: Biacore T100, biotin-RNA on streptavidin chip); biopanning: TENT (10 mM Tris-HCl pH 8.0, 1 mM EDTA, 250 mM). (ELISA stands for enzyme-linked immunosorbent assay.)

For orientation: Kd means the equilibrium constant for the complex coming apart. The low end stands for tighter binding, the high end for weaker binding. On to invSINEB2 of AS Uchl1, for which the Kd turned out to be 94.9 nM.
